Assay results reported in patent US20210002363A1 (PHANES THERAPEUTICS, published 2021).
Values belong to the binder of their own block, whether it stands above or below them.

Key:
[1] = target: T1, FOLR1 on SK-OV-3 cells (ATCC HTB-77) (Homo sapiens (Human), UniProt P15328 25-234); assay: FACS on SK-OV-3 cells; Alexa Fluor 488 F(ab')2 goat anti-human IgG Fc; MFI
T1 construct: Endogenous FOLR1 of the cell line; also called cells that are known to express FOLR1
Description: To assess the binding of the chimeric anti-FOLR1 mAbs to cells that are known to express FOLR1, SK-OV-3 (ATCC® HTB-77™) cells were plated at 80,000 cells per well on a 96-well non-binding U-bottom plate (Greiner Bio-One, Cat#: 650901). In some experiments, 90,000 cells per well were used. The cells were incubated in 50 μL FACS buffer (HBSS with 0.1% BSA and 0.05% sodium azide) containing mAbs at different concentrations on ice for 15 minutes. After wash, cells were incubated in 50 μL FACS buffer containing 3.5 μg/mL F(ab′)2-Goat anti-Human IgG Fc conjugated to Alexa Fluor® 488 (Invitrogen, Cat#: H10120) on ice for 15 minutes in dark and washed again. Cells were analyzed using an Attune NxT flow cytometer. MFI, mean fluorescence intensity.

[2] = target: T2, Recombinant extracellular domain of human FOLR1 (Novoprotein, Cat#: C784) (human, UniProt P15328 25-233, limits assumed); assay: SPR (Biacore 8k), mAb captured on protein A chip, recombinant FOLR1 as analyte, 1:1 model
T2 construct: Bought reagent; also called recombinant FOLR1; immobilized FOLR1 extracellular domain
Description: The interaction of the chimeric anti-FOLR1 mAbs and FOLR1 was measured by Surface Plasmon Resonance (SPR) (Biacore 8k, GE Healthcare). Briefly, an anti-FOLR1 mAb was immobilized to a protein A sensor chip (GE Healthcare, Cat#: 29-1275-56) in HBS-P buffer (0.01 M HEPES pH 7.4, 0.15 M NaCl, 0.05% v/v Surfactant P20) with an injection flow rate at […]. The recombinant FOLR1 (Novoprotein, Cat#: C784) at variant concentrations was loaded with the flow rate of 30 μL/min in HBS-P buffer. Following antigen loading, the surface was regenerated with 10 mM glycine-HCl (pH 1.5). Sensor grams were fit with a 1:1 binding model using Biacore 8k evaluation software (GE Healthcare).

[3] = target: T2, Recombinant extracellular domain of …; assay: ELISA on plate-coated recombinant human FOLR1 extracellular domain; anti-human IgG-HRP; O.D. 450 nm
Description: The Purified chimeric mAbs were tested in an ELISA assay for their ability to bind to immobilized human FOLR1. Recombinant extracellular domain of human FOLR1 (Novoprotein, Cat#: C784) in carbonate coating buffer was coated on a 96-well plate at room temperature for 1 hour. The plate is blocked by 5% BSA in TBST for 1 hour at room temperature. In each well of an individual plate, mAbs at various concentrations were incubated for 1 hour at room temperature. The plate was washed and the binding to FOLR1 was detected by anti-human IgG conjugated to horseradish peroxidase (hIgG-HRP) (ThermoFisher Scientific, Cat#: H10007) with incubation for 1 hour at room temperature. Then after washing, the ELISA was developed using One-step Detection Solution (ThermoFisher Scientific, Cat#: 34028) and measured as the absorbance at 450 nm.

[4] = target: T3, full-length human FOLR1 on stably transfected CHO cells (human, UniProt P15328 25-234); assay: FACS on CHO cells stably expressing full-length human FOLR1; PE goat anti-mouse IgG; MFI
T3 construct: also called CHO cells stably expressing human FOLR1
Description: CHO cells stably transfected with full-length human FOLR1 were transferred to a 96-well plate at 200,000 cells/well, washed once with FACS buffer (1×PBS, pH6.8+2% FBS) and incubated with purified mouse anti-FOLR1 mAbs from hybridoma supernatants at various concentrations for 15 minutes on ice. Cells were then centrifuged at 1,000 rpm for 5 minutes and washed with FACS buffer three times. The cells were incubated with PE-conjugated goat anti-mouse IgG polyclonal antibodies and incubated on ice for another 15 minutes. Cells were then washed with FACS buffer three times and then resuspended in FACS buffer containing 0.1 μg/ml PI (propidium iodide) for live/dead cell gating. Cells were then run through the FACS Caliber instrument and the data were analyzed by the Flowjo software. MFI, mean fluorescence intensity.

[5] = target: T2, Recombinant extracellular domain of …; assay: ELISA on immobilized FOLR1 extracellular domain; O.D. 450 nm
[6] = target: T1, FOLR1 on SK-OV-3 cells (ATCC HTB-77); assay: FACS on SK-OV-3 cells; MFI

T2 sequence (P15328 25-233 limits assumed): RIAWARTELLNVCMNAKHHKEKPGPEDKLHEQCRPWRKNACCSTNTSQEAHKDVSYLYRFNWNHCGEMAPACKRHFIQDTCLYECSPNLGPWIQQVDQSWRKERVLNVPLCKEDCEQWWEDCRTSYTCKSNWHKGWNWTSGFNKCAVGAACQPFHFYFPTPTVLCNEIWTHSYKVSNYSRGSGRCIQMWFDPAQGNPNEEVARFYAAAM
T1 sequence (P15328 25-234 limits assumed): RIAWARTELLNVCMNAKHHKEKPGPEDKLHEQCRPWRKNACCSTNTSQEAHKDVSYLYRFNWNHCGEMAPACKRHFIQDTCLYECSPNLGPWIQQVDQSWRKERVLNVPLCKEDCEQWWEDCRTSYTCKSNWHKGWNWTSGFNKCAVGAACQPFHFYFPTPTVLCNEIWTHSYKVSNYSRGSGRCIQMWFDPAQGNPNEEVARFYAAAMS
T3 sequence (P15328 25-234 limits assumed): as above

EC50 (read off the curve) [4]: ~0.1 µg/mL
B2: mouse anti-FOLR1 mAb F7 (purified from hybridoma supernatant) (antibody, V domains shown)
VH: EFQLQQSGPELVKPGASVKISCKASGYSFTDYNMNWVKQSNGKSLEWIGVIDPNYGTTNYNQKFVGKATLTVDQSSITAYMQLNSLTAEDSAVYFCAIKGYGNPAAYWGQGTLVTVSA
VL: DIQMTQSPSSLSASLGGKVTITCKASQDINKYLAWYQHEPGKGPRLLIRYTSILESGIPSRFSGSGSGRDYSFSISNLEPEDIATYYCLQYYNLWTFGGGTKLEIK
notes: Mouse antibody from hybridoma, purified on Protein A, detected with anti-mouse IgG; also called mAb clone F7

Kd [2]: 1 nM
B6: chimeric anti-FOLR1 mAb F20 (antibody, V domains shown)
VH: QVQLQQSGAELVKPGASVQLSCKASGYTFASYYLYWVKQRPGQGLEWIGEINPRSGGTNFNEKFKSKATVTVDKSSSTAYMQLSSLTSEDSAVYYCSRSGRLRGFYTMDYWGQGTSVTVSS
VL: NIVMTQSPKSMSVSVGERVTLSCKAGENVGSYVSWYQQKPEQSPELLIYGASNRYTGVPDRFTGSGSATDFTLTISSVQAEDLADYYCGQTYRFLTFGAGTKLELK
notes: also called Chimeric mAb F20

EC50 (read off the curve) [4]: ~0.5 µg/mL
B7: mouse anti-FOLR1 mAb F8 (purified from hybridoma supernatant) (antibody, V domains shown)
VH: EVMLVESGGGLVKPGGSLKLSCVASGFTLSTYAMSWVRQTPEKRLEWVATISGGGGDTYHLDTVKGRFTISRDNAKNTLYLQMSSLRSEDTALYYCARQSHYGSSYYFDNWGQGTTLTVSS
VL: DIQMTQSPASLSASVGEIVTIICRVSENIDSYLAWYQQKQGKSPQLLVYAATNLADGVPSRFSGSGSGSQYSLKINSLQSEDVARYYCQHYYTTPPTFGGGTKLDIK
notes: Mouse antibody from hybridoma, purified on Protein A, detected with anti-mouse IgG; also called mAb clone F8

EC50 (read off the curve) [4]: ~0.3 µg/mL
B12: mouse anti-FOLR1 mAb F17 (purified from hybridoma supernatant) (antibody, V domains shown)
VH: DVQLVESGGGLVQPGGSRKLSCAASGFTFSDFGMHWIRQAPERGLEWVAYMSYTPGTFHYADTVKDRFFISRDNAKNTLFLQMTSLRSDDTAMYYCARVHVGTVDYWGQGTSVTVSS
VL: DVVLTQSPATLSVTPGDSVSLSCRASQNINNNLHWFQQKSHESPRLLIKYASQSISGIPSRFSGSGSGTDFTLSINNVETEDFGIYFCQQSNSWPALTFGTGTKVELK
notes: Mouse antibody from hybridoma, purified on Protein A, detected with anti-mouse IgG; also called mAb clone F17

EC50 (read off the curve) [4]: ~1 µg/mL
B14: mouse anti-FOLR1 mAb F4 (purified from hybridoma supernatant) (antibody, V domains shown)
VH: EVQLVESGGGLVKPGGSLKLSCAASGFTFSDYGMHWVRQAPEKGLEWVAFISSGSNTIYYADIVKGRFAISRDNAKNTLFLQMASLRSEDTALYYCARLAEWDVAYWGQGTLVTVSA
VL: DIVLTQSPATLSVTPGDRISLSCRASQNINNNLHWYQQKSHESPRLLIKFASQSISGIPSRFSGSGSGTDFTLNINGVETEDFGMYFCQQIYSWPQLTFGAGTRLELK
notes: Mouse antibody from hybridoma, purified on Protein A, detected with anti-mouse IgG; also called mAb clone F4

More lines, now with the values behind:

B1: chimeric anti-FOLR1 mAb F7 (antibody, V domains shown)
VH: EFQLQQSGPELVKPGASVKISCKASGYSFTDYNMNWVKQSNGKSLEWIGVIDPNYGTTNYNQKFVGKATLTVDQSSITAYMQLNSLTAEDSAVYFCAIKGYGNPAAYWGQGTLVTVSA
VL: DIQMTQSPSSLSASLGGKVTITCKASQDINKYLAWYQHEPGKGPRLLIRYTSILESGIPSRFSGSGSGRDYSFSISNLEPEDIATYYCLQYYNLWTFGGGTKLEIK
notes: also called Chimeric mAb F7
EC50 (read off the curve) [1]: ~0.2 nM
Kd [2]: 2.33 nM
EC50 (read off the curve) [3]: ~0.1 nM

B3: chimeric anti-FOLR1 mAb F19 (antibody, V domains shown)
VH: EVKLDETGGGLVQPGRPMKLSCVASGFTFSDYWMNWVRQSPDKGLEWVAQIGNKFHNYETYYSDSVKGRFTISRDDSKSSVYLQMNSLRVEDTGIYYCTKLGRGYYVMDYWGQGTSVTVSS
VL: DIQMTQTTSSLSASLGDRVTLNCRASQDITNHLNWFQQKPDGTFQLLIYYTSRLHSGVPSRFSGSGSGTDYSLTISNLEQEDFATYFCQQDSQHPWTFGGGTKLEIK
notes: also called Chimeric mAb F19
Kd [2]: 11.8 nM

B4: F5-H3L1 (antibody, V domains shown)
VH: EVQLVESGGGLVQPGGSLRLSCAVSGFTFSNYGMSWVRQAPGKGLEWVATISSGGSYTYYPDSVKGRFTISRDNSKNTLYLQMSSLRAEDTAVYYCSTQGSSGYVGYWGQGTLVTVSS
VL: DIQMTQSPSSVSASVGDRVTITCKASQDITNFIGWYQHKPGKAPKLLISYTSILESGVPSRFSGSGSGRDYTLTISSLQPEDFATYYCLQYYNLWTFGGGTKVEIK
notes: also called humanized F5 mAb H3L1
binding result [5]: binds

B5: F5-H3L2 (antibody, V domains shown)
VH: EVQLVESGGGLVQPGGSLRLSCAVSGFTFSNYGMSWVRQAPGKGLEWVATISSGGSYTYYPDSVKGRFTISRDNSKNTLYLQMSSLRAEDTAVYYCSTQGSSGYVGYWGQGTLVTVSS
VL: DIQMTQSPSSVSASVGDRVTITCKASQDITNFIGWYQHKPGKAPKLLISYTSILESGVPSRFSGSGSGTDYTLTISSLQPEDFATYYCLQYYNLWTFGGGTKVEIK
notes: also called humanized F5 mAb H3L2
binding result [5]: binds

B8: chimeric anti-FOLR1 mAb F8 (antibody, V domains shown)
VH: EVMLVESGGGLVKPGGSLKLSCVASGFTLSTYAMSWVRQTPEKRLEWVATISGGGGDTYHLDTVKGRFTISRDNAKNTLYLQMSSLRSEDTALYYCARQSHYGSSYYFDNWGQGTTLTVSS
VL: DIQMTQSPASLSASVGEIVTIICRVSENIDSYLAWYQQKQGKSPQLLVYAATNLADGVPSRFSGSGSGSQYSLKINSLQSEDVARYYCQHYYTTPPTFGGGTKLDIK
notes: also called Chimeric mAb F8
Kd [2]: 0.721 nM

B9: F20-H3L1 (antibody, V domains shown)
VH: QVQLVQSGAEVKKPGSSVKVSCKASGYTFASYYLYWVRQAPGQGLEWIGEINPRSGGTNFNEKFKSKATVTVDKSTNTAYMELSSLRSEDTAVYYCSRSGRLRGFYTMDYWGQGTLVTVSS
VL: DIVMTQSPDSLAVSLGERATINCKAGENVGSYVSWYQQKPGQPPKLLIYGASNRYTGVPDRFSGSGSATDFTLTISSLQAEDVAVYYCGQTYRFLTFGQGTKVEIK
notes: also called humanized F20 mAb H3L1
EC50 (read off the curve) [6]: 1 to 2 nM

B10: F20-H1L1 (antibody, V domains shown)
VH: QVQLVQSGAEVKKPGSSVKVSCKASGYTFASYYLYWVRQAPGQGLEWIGEINPRSGGTNFNEKFKSRATVTVDKSTSTAYMELSSLRSEDTAVYYCSRSGRLRGFYTMDYWGQGTLVTVSS
VL: DIVMTQSPDSLAVSLGERATINCKAGENVGSYVSWYQQKPGQPPKLLIYGASNRYTGVPDRFSGSGSATDFTLTISSLQAEDVAVYYCGQTYRFLTFGQGTKVEIK
notes: also called humanized F20 mAb H1L1
EC50 (read off the curve) [6]: 1 to 2 nM

B11: F20-H3L2 (antibody, V domains shown)
VH: QVQLVQSGAEVKKPGSSVKVSCKASGYTFASYYLYWVRQAPGQGLEWIGEINPRSGGTNFNEKFKSKATVTVDKSTNTAYMELSSLRSEDTAVYYCSRSGRLRGFYTMDYWGQGTLVTVSS
VL: DIVMTQSPDSLAVSLGERATINCKAGENVGSYVSWYQQKPGQSPKLLIYGASNRYTGVPDRFSGSGSATDFTLTISSLQAEDVAVYYCGQTYRFLTFGQGTKVEIK
notes: also called humanized F20 mAb H3L2
EC50 (read off the curve) [6]: 1 to 2 nM

B13: chimeric anti-FOLR1 mAb F4 (antibody, V domains shown)
VH: EVQLVESGGGLVKPGGSLKLSCAASGFTFSDYGMHWVRQAPEKGLEWVAFISSGSNTIYYADIVKGRFAISRDNAKNTLFLQMASLRSEDTALYYCARLAEWDVAYWGQGTLVTVSA
VL: DIVLTQSPATLSVTPGDRISLSCRASQNINNNLHWYQQKSHESPRLLIKFASQSISGIPSRFSGSGSGTDFTLNINGVETEDFGMYFCQQIYSWPQLTFGAGTRLELK
notes: also called Chimeric mAb F4
EC50 (read off the curve) [1]: ~0.5 nM
Kd [2]: 0.547 nM
EC50 (read off the curve) [3]: ~0.2 nM
